According to US7052906:

How the values were obtained:
CD33 on HL60 cells = CD33 on HL60 cells (UniProt P20138); test: cell-based or functional assay
soluble CD33 = soluble CD33 (UniProt P20138); test: cell-based or functional assay

Row | Substance | IL-2 production, cell surface-expressed antigen with respect to soluble antigen (CD33 on HL60 cells) | IL-2 production, change against the CD28 transmembrane receptor (fold increase) (CD33 on HL60 cells) | IL-2 production, change against the CD28 transmembrane receptor (fold decrease) (soluble CD33)
1 | P67scFv/h.CD28/CD28Tm/FcRγ chimeric receptor (from UniProt P10747 118-134; P10747 135-161; P30273 45-86) | 3 fold deficit | – | –
2 | P67scFv/h.CD28/Tm24/FcRγ chimeric receptor (from UniProt P10747 118-134; P30273 45-86) | 5 fold excess | > 5 | < 3
3 | P67scFv/h.CD28/CD28Tm/TCRζ receptor (from UniProt P10747 118-134; P10747 135-161; P20963 31-142) | > 2 fold deficit | – | –

The remaining lines, values ahead:

Row | IL-2 production, cell surface-expressed antigen with respect to soluble antigen (CD33 on HL60 cells) | IL-2 production, change against the CD28 transmembrane receptor (fold increase) (CD33 on HL60 cells) | IL-2 production, change against the CD28 transmembrane receptor (fold decrease) (soluble CD33) | Substance
4 | 2 fold excess | – | – | P67scFv/h.CD28/Tm24/TCRζ chimeric receptor (from UniProt P10747 118-134; P20963 31-142)
5 | 5 fold excess | > 5 | < 3 | P67scFv/h.CD28/Tm31/FcRγ chimeric receptor (from UniProt P10747 118-134; P30273 45-86)
